According to patent US20040054131A1:
Where no end group is shown, it is not given here.

Target: FGFR1c extracellular domain-IgG fusion protein (human) (UniProt P11362)
Test: BIAcore real-time kinetic analysis, immobilized FGFR1c ECD, no heparin; approximate apparent affinity

Sequence of FGFR1c extracellular domain-IgG fusion protein (human) (P11362 22-377): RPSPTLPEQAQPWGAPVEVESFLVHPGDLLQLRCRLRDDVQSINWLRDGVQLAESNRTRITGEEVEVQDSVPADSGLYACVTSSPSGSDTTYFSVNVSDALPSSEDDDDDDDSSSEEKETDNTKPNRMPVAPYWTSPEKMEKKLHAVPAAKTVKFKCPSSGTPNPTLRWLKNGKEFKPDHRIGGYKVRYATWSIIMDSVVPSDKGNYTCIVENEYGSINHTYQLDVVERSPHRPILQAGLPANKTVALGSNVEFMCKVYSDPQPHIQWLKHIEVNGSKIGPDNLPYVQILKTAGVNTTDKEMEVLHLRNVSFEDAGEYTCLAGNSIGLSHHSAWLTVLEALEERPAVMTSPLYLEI

## AESGDDYCVLVFTDSAWTKICDWSHFRN (Fc fusion, part only; not given: linkers and human IgG1 Fc, not shown: a dimerising Fc or GST, cysteine pairing not given here; also: homodimer, fused to Fc of human IgG1) [C19-Ig fusion protein]
  Kd: 0.09 µM
